# Reference: IntAct's records for PubMed 35512704
# B1: Mothers against decapentaplegic homolog 4 (Homo sapiens), Q13485 (parent)
# chain: MDNMSITNTPTSNDACLSIVHSLMCHRQGGESETFAKRAIESLVKKLKEKKDELDSLITAITTNGAHPSKCVTIQRTLDGRLQVAGRKGFPHVIYARLWRWPDLHKNELKHVKYCQYAFDLKCDSVCVNPYHYERVVSPGIDLSGLTLQSNAPSSMMVKDEYVHDFEGQPSLSTEGHSIQTIQHPPSNRASTETYSTPALLAPSESNATSTANFPNIPVASTSQPASILGGSHSEGLLQIASGPQPGQQQNGFTGQPATYHHNSTTTWTGSRTAPYTPNLPHHQNGHLQHHPPMPPHPGHYWPVHNELAFQPPISNHPAPEYWCSIAYFEMDVQVGETFKVPSSCPIVTVDGYVDPSGGDRFCLGQLSNVHRTEAIERARLHIGKGVQLECKGEGDVWVRCLSDHAVFVQSYYLDREAGRAPGDAVHKIYPSAYIKVFDLRQCHRQMQQQAATAQAAAAAQAAAVAGNIPGPGSVGGIAPAISLSAAAGIGVDDLRRLCILRMSFVKGWGPDYPRQSIKETPCWIEIHLHRALQLLDEVLHTMPIADPQPLD
# Variants of: B1
# Conditions: with mp2k7_human MAP2K7, O14733
row,Variant,effect of a mutation on the interaction
1,G386D,with no effect

# Variants of: B1
# Conditions: with m3k1_human MAP3K1, Q13233
row,Variant,effect of a mutation on the interaction
1,G386D,with no effect

# Variants of: B1
# Conditions: with m3k5_human MAP3K5, Q99683
row,Variant,effect of a mutation on the interaction
1,G386D,with no effect

# Variants of: B1
# Conditions: with mk10_human MAPK10, P53779
row,Variant,effect of a mutation on the interaction
1,G386D,with no effect

# Variants of: B1
# Conditions: with mk14_human MAPK14, Q16539
row,Variant,effect of a mutation on the interaction
1,G386D,with no effect

# Variants of: B1
# Conditions: with mk03_human MAPK3, P27361
row,Variant,effect of a mutation on the interaction
1,G386D,with no effect

# Variants of: B1
# Conditions: with mk04_human MAPK4, P31152
row,Variant,effect of a mutation on the interaction
1,G386D,with no effect

# Variants of: B1
# Conditions: with mk06_human MAPK6, Q16659
# Sequence of mk06_human MAPK6, Q16659 (Q16659 whole entry): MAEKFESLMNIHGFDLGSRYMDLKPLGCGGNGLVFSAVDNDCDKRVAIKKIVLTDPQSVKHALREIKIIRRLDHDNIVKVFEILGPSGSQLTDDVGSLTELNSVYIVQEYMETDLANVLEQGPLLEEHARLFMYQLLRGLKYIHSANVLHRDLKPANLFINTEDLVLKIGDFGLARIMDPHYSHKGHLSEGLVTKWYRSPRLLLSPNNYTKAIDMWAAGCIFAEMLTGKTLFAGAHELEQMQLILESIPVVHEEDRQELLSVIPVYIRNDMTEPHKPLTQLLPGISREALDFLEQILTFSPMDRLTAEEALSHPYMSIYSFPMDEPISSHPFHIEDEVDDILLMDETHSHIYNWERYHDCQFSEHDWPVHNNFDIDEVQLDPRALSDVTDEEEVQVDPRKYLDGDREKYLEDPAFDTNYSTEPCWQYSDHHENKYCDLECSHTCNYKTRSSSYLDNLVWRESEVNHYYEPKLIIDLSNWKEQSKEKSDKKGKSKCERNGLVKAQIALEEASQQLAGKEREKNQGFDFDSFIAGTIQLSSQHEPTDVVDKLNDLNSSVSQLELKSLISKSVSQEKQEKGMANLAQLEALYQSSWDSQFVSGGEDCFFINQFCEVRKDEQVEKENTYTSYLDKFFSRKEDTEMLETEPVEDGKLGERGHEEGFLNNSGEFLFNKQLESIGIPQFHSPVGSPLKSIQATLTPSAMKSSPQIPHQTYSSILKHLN
row,Variant,effect of a mutation on the interaction
1,G386D,with no effect

# Variants of: B1
# Conditions: with mk07_human MAPK7, Q13164
row,Variant,effect of a mutation on the interaction
1,G386D,with no effect

# Variants of: B1
# Conditions: with mcl1_human MCL1, Q07820
# Sequence of mcl1_human MCL1, Q07820 (Q07820 whole entry): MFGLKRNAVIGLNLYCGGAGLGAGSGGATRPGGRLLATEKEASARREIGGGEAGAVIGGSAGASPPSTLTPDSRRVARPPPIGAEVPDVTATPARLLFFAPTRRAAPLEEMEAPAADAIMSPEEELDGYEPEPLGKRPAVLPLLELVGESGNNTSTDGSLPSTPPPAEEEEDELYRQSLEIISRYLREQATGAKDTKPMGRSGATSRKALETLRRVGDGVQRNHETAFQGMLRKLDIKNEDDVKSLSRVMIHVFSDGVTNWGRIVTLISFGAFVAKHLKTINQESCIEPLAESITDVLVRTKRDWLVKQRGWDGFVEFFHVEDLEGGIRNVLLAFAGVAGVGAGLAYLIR
row,Variant,effect of a mutation on the interaction
1,G386D,with no effect

# Variants of: B1
# Conditions: with mitf_human MITF
row,Variant,effect of a mutation on the interaction
1,G386D,with no effect

# Variants of: B1
# Conditions: with mtor_human MTOR
row,Variant,effect of a mutation on the interaction
1,G386D,with no effect

# Variants of: B1
# Conditions: with myc_human MYC
row,Variant,effect of a mutation on the interaction
1,G386D,with no effect

# Variants of: B1
# Conditions: with nf1_human NF1, P21359
row,Variant,effect of a mutation on the interaction
1,G386D,with no effect

# Variants of: B1
# Conditions: with merl_human NF2, P35240
row,Variant,effect of a mutation on the interaction
1,G386D,with no effect

# Variants of: B1
# Conditions: with nfic_human NFIC
row,Variant,effect of a mutation on the interaction
1,G386D,with no effect

# Variants of: B1
# Conditions: with ikba_human NFKBIA
row,Variant,effect of a mutation on the interaction
1,G386D,with no effect

# Variants of: B1
# Conditions: with notc2_human NOTCH2, Q04721
row,Variant,effect of a mutation on the interaction
1,G386D,with no effect

# Variants of: B1
# Conditions: with nox1_human NOX1, Q9Y5S8
row,Variant,effect of a mutation on the interaction
1,G386D,with no effect

# Variants of: B1
# Conditions: with ntrk2_human NTRK2, Q16620
row,Variant,effect of a mutation on the interaction
1,G386D,with no effect

# Variants of: B1
# Conditions: with pak3_human PAK3, O75914
# Sequence of pak3_human PAK3, O75914 (O75914 whole entry, looked up): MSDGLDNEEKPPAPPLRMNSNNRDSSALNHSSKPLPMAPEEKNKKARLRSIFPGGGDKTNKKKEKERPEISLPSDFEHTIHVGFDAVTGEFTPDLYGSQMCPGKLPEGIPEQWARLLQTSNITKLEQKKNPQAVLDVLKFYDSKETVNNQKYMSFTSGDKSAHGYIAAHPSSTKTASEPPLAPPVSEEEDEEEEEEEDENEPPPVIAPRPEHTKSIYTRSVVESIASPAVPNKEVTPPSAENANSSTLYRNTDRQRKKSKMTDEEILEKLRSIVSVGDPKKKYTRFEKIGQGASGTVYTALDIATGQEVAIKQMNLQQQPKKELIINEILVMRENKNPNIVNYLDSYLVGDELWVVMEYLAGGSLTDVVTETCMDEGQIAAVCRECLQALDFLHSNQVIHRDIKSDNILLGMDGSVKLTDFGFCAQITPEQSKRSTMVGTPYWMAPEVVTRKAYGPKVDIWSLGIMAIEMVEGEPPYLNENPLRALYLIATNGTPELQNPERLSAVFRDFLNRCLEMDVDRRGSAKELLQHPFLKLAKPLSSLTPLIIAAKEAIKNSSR
row,Variant,effect of a mutation on the interaction
1,G386D,with no effect

# Variants of: B1
# Conditions: with prkn_human PRKN
row,Variant,effect of a mutation on the interaction
1,G386D,with no effect

# Variants of: B1
# Conditions: with pax5_human PAX5, Q02548
row,Variant,effect of a mutation on the interaction
1,G386D,with no effect

# Variants of: B1
# Conditions: with pax9_human PAX9, P55771
# Sequence of pax9_human PAX9, P55771 (P55771 whole entry): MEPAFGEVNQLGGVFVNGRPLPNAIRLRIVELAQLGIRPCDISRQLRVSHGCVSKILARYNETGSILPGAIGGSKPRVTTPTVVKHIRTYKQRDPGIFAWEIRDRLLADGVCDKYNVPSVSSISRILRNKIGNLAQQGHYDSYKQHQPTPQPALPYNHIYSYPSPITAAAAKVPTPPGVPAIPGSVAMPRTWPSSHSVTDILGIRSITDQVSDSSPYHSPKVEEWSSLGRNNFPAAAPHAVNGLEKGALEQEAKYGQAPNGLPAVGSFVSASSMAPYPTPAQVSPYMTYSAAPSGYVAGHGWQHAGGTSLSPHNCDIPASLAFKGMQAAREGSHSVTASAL
row,Variant,effect of a mutation on the interaction
1,G386D,with no effect

# Variants of: B1
# Conditions: with pb1_human PBRM1, Q86U86
# Sequence of pb1_human PBRM1, Q86U86 (Q86U86 whole entry): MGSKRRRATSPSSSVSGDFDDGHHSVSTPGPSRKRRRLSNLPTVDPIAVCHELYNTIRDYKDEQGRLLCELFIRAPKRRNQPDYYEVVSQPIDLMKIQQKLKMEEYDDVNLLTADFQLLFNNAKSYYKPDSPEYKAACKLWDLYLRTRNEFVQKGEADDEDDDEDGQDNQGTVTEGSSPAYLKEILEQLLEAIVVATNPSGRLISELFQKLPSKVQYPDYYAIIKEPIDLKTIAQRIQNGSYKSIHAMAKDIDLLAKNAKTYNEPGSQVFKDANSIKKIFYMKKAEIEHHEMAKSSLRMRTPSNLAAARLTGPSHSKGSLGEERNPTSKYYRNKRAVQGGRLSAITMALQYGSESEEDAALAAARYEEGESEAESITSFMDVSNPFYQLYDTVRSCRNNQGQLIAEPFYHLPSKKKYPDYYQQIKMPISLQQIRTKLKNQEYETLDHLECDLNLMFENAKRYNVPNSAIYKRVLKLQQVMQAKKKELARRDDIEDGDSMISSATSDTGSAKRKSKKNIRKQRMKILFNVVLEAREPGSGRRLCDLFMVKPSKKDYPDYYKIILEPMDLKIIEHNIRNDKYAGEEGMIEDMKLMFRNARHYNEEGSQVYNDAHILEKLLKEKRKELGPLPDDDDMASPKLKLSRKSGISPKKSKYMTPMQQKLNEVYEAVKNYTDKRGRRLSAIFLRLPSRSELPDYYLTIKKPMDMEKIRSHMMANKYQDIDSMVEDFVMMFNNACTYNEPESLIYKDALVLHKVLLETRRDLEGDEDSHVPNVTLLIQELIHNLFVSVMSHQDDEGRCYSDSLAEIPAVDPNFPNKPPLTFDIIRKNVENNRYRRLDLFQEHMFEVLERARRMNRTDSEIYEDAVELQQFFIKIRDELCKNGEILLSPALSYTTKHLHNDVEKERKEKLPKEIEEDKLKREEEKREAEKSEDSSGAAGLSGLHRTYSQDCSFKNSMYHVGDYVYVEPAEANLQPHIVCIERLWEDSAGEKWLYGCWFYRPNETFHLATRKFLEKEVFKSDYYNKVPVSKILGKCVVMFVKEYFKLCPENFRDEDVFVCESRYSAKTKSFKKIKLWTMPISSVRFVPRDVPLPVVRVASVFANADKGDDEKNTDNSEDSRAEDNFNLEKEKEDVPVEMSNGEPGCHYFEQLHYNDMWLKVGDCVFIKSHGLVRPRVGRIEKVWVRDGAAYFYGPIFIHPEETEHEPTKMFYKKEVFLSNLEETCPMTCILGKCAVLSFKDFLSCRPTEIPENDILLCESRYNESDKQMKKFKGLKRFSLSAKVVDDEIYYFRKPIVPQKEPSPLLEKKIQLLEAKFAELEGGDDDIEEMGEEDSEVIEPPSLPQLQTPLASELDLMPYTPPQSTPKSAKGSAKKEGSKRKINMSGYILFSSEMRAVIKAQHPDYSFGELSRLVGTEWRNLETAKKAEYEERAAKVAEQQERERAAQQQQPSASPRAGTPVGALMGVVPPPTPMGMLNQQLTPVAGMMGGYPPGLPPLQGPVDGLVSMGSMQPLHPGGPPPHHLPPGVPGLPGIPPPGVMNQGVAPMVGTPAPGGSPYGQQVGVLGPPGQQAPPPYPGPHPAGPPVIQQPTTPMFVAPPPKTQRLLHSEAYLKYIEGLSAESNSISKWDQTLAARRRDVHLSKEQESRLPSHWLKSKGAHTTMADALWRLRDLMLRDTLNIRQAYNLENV
row,Variant,effect of a mutation on the interaction
1,G386D,with no effect

# Variants of: B1
# Conditions: with pcbp1_human PCBP1, Q15365
row,Variant,effect of a mutation on the interaction
1,G386D,with no effect

# Variants of: B1
# Conditions: with pgfra_human PDGFRA
row,Variant,effect of a mutation on the interaction
1,G386D,with no effect

# Variants of: B1
# Conditions: with pgfrb_human PDGFRB
row,Variant,effect of a mutation on the interaction
1,G386D,with no effect

# Variants of: B1
# Conditions: with pdk1_human PDK1, Q15118
row,Variant,effect of a mutation on the interaction
1,G386D,with no effect

# Variants of: B1
# Conditions: with PIK3C2B
row,Variant,effect of a mutation on the interaction
1,G386D,with no effect

# Variants of: B1
# Conditions: with pk3c3_human PIK3C3, Q8NEB9
row,Variant,effect of a mutation on the interaction
1,G386D,with no effect

# Variants of: B1
# Conditions: with pk3ca_human PIK3CA
row,Variant,effect of a mutation on the interaction
1,G386D,with no effect

# Variants of: B1
# Conditions: with pk3cb_human PIK3CB
row,Variant,effect of a mutation on the interaction
1,G386D,with no effect

# Variants of: B1
# Conditions: with pk3cg_human PIK3CG
row,Variant,effect of a mutation on the interaction
1,G386D,with no effect

# Variants of: B1
# Conditions: with p85a_human PIK3R1, P27986
row,Variant,effect of a mutation on the interaction
1,G386D,with no effect

# Variants of: B1
# Conditions: with p85b_human PIK3R2, O00459
row,Variant,effect of a mutation on the interaction
1,G386D,with no effect

# Variants of: B1
# Conditions: with dpod1_human POLD1, P28340
row,Variant,effect of a mutation on the interaction
1,G386D,with no effect

# Variants of: B1
# Conditions: with dpoe1_human POLE
row,Variant,effect of a mutation on the interaction
1,G386D,with no effect

# Variants of: B1
# Conditions: with 2aaa_human PPP2R1A
row,Variant,effect of a mutation on the interaction
1,G386D,with no effect

# Variants of: B1
# Conditions: with prdm1_human PRDM1, O75626
row,Variant,effect of a mutation on the interaction
1,G386D,with no effect

# Variants of: B1
# Conditions: with aapk2_human PRKAA2, P54646
row,Variant,effect of a mutation on the interaction
1,G386D,with no effect

# Variants of: B1
# Conditions: with aakb2_human PRKAB2, O43741
row,Variant,effect of a mutation on the interaction
1,G386D,with no effect

# Variants of: B1
# Conditions: with prss8_human PRSS8, Q16651
row,Variant,effect of a mutation on the interaction
1,G386D,with no effect

# Variants of: B1
# Conditions: with ptk6_human PTK6, Q13882
row,Variant,effect of a mutation on the interaction
1,G386D,with no effect

# Variants of: B1
# Conditions: with tf65_human RELA
row,Variant,effect of a mutation on the interaction
1,G386D,with no effect

# Variants of: B1
# Conditions: with rheb_human RHEB
row,Variant,effect of a mutation on the interaction
1,G386D,with no effect

# Variants of: B1
# Conditions: with rictr_human RICTOR
row,Variant,effect of a mutation on the interaction
1,G386D,with no effect

# Variants of: B1
# Conditions: with rnf43_human RNF43, Q68DV7
# Sequence of rnf43_human RNF43, Q68DV7 (Q68DV7 whole entry): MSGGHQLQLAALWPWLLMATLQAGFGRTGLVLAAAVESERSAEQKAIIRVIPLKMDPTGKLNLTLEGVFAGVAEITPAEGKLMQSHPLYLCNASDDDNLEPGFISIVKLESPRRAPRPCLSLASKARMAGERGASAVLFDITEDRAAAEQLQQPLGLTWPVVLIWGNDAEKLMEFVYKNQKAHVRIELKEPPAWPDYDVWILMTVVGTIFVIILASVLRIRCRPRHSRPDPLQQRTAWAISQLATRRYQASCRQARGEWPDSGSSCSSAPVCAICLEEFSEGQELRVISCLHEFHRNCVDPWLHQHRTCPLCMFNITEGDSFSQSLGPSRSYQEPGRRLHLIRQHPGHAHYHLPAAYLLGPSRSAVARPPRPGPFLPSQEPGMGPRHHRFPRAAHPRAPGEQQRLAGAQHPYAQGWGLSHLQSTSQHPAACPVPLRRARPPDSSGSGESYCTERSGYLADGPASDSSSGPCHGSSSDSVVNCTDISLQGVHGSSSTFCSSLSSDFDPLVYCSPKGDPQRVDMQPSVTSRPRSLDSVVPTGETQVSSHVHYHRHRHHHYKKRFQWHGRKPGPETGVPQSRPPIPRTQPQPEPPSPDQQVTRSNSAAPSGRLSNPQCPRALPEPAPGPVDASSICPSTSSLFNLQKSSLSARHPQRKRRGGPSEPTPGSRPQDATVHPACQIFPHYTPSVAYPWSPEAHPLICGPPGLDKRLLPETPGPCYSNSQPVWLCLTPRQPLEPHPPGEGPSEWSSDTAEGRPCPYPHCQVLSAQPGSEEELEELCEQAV
row,Variant,effect of a mutation on the interaction
1,G386D,with no effect

# Variants of: B1
# Conditions: with ros1_human ROS1, P08922
row,Variant,effect of a mutation on the interaction
1,G386D,with no effect

# Variants of: B1
# Conditions: with rl5_human RPL5, P46777
row,Variant,effect of a mutation on the interaction
1,G386D,with no effect

# Variants of: B1
# Conditions: with ks6b1_human RPS6KB1, P23443
# Sequence of ks6b1_human RPS6KB1, P23443 (P23443 whole entry, looked up): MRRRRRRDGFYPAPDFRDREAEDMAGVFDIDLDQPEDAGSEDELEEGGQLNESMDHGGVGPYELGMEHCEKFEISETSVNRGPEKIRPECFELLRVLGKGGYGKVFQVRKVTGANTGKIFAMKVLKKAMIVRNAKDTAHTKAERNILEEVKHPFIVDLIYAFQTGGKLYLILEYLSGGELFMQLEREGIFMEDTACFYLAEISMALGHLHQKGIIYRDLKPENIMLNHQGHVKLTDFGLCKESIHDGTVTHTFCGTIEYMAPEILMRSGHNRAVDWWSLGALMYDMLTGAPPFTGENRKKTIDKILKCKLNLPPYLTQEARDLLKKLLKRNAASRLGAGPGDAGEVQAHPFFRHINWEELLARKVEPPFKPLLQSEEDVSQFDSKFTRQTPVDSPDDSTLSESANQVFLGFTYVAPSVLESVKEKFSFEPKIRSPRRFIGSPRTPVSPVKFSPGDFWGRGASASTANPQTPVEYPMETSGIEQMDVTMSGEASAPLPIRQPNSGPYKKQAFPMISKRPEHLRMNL
row,Variant,effect of a mutation on the interaction
1,G386D,with no effect

# Variants of: B1
# Conditions: with rptor_human RPTOR
row,Variant,effect of a mutation on the interaction
1,G386D,with no effect
